From the supplement of paper PMC9732359
± gives the uncertainty stated by the source.

Assay: protein stability index of a GFP-peptide fusion (yeast GPS) (PSI 1-4); higher = more stable; sorted into four equal gates, so the index is relative within each strain
In short: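 Mid-log yeast cultures in leucine-free medium, carrying a pooled plasmid library, were sorted into four equal gates by their GFP/Cherry fluorescence ratio. Each plasmid expressed Cherry along with GFP fused upstream of a tiled 17-residue yeast protein peptide. Plasmids recovered from each gate were PCR-amplified and Illumina-sequenced, with reads assigned to strains by barcodes. The protein stability index was obtained by summing each gate's read frequency weighted by its gate number.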

Sequence: QEEEGELEHLTKKSKLE [DSN1]
- protein stability index (doa10∆): 3.02 ± 0.053
- protein stability index (pdr5∆): 3.17 ± 0.056
- protein stability index (san1∆): 3.14 ± 0.043
- protein stability index (ubr1∆): 3.18 ± 0.043

Sequence: ARYNWICNPVHKHREAR [RPL15B]
- protein stability index (doa10∆): 2.94 ± 0.083
- protein stability index (pdr5∆): 2.68 ± 0.088
- protein stability index (san1∆): 2.36 ± 0.11
- protein stability index (ubr1∆): 3.04 ± 0.095

Sequence: LVLGEVSKKELYAIKKV [BRR2]
- protein stability index (doa10∆): 1.68 ± 0.073
- protein stability index (pdr5∆): 2.37 ± 0.096
- protein stability index (san1∆): 3.13 ± 0.079
- protein stability index (ubr1∆): 1.83 ± 0.08

Sequence: DGIFSSKTDNIEDPNLS [YMR153W/NUP53]
- protein stability index (doa10∆): 2.59 ± 0.086
- protein stability index (pdr5∆): 2.2 ± 0.092
- protein stability index (san1∆): 2.69 ± 0.096
- protein stability index (ubr1∆): 2.55 ± 0.095

Sequence: DEDKFKKLKPIVAKYDP [PRP28]
- protein stability index (doa10∆): 2.78 ± 0.077
- protein stability index (pdr5∆): 2.9 ± 0.088
- protein stability index (san1∆): 2.9 ± 0.094
- protein stability index (ubr1∆): 1.98 ± 0.059

Sequence: KSSLSLRDHALSLTAFT [ITC1]
- protein stability index (doa10∆): 1.63 ± 0.036
- protein stability index (pdr5∆): 2.14 ± 0.036
- protein stability index (san1∆): 1.64 ± 0.064
- protein stability index (ubr1∆): 2.16 ± 0.036

Sequence: YQTRARQKARTDAHTPL [RPR2]
- protein stability index (doa10∆): 3.29 ± 0.1
- protein stability index (pdr5∆): 3.14 ± 0.09
- protein stability index (san1∆): 3.32 ± 0.058
- protein stability index (ubr1∆): 3.27 ± 0.078

Sequence: LQYIIHDTLNNEIANSI [BRR2]
- protein stability index (doa10∆): 2.67 ± 0.057
- protein stability index (pdr5∆): 2.69 ± 0.076
- protein stability index (san1∆): 2.86 ± 0.077
- protein stability index (ubr1∆): 2.76 ± 0.056

Sequence: DKQARKQRTKKEDKSEA [SNF2]
- protein stability index (doa10∆): 3.64 ± 0.14
- protein stability index (pdr5∆): 3.54 ± 0.13
- protein stability index (san1∆): 3.25 ± 0.077
- protein stability index (ubr1∆): 3.29 ± 0.11

Sequence: TVVGNASFGKNLQIRQL [DSN1]
- protein stability index (pdr5∆): 2.7 ± 0.17
- protein stability index (ubr1∆): 2.97 ± 0.2

Sequence: EKTLGKSLSKAISTGAK [RPN7]
- protein stability index (doa10∆): 2.98 ± 0.19
- protein stability index (pdr5∆): 3.42 ± 0.12
- protein stability index (san1∆): 3.53 ± 0.12
- protein stability index (ubr1∆): 3.57 ± 0.19

Sequence: KVAHTSYKRIYGEYPPT [PRE8]
- protein stability index (doa10∆): 3.02 ± 0.062
- protein stability index (pdr5∆): 3.14 ± 0.068
- protein stability index (san1∆): 3.01 ± 0.085
- protein stability index (ubr1∆): 3.09 ± 0.049

Sequence: AGAVAPEDIWVRAVNTG [RPP0]
- protein stability index (san1∆): 1.93 ± 0.28
- protein stability index (ubr1∆): 1.31 ± 0.29

Sequence: PHGFPSRMTVGKMIELI [RET1]
- protein stability index (doa10∆): 2.54 ± 0.11
- protein stability index (pdr5∆): 2.56 ± 0.11
- protein stability index (san1∆): 2.77 ± 0.084
- protein stability index (ubr1∆): 2.46 ± 0.092

Sequence: WGYQMVWAPTQKCFKLT [POP1]
- protein stability index (doa10∆): 2.59 ± 0.069
- protein stability index (pdr5∆): 2.62 ± 0.068
- protein stability index (san1∆): 2.57 ± 0.069
- protein stability index (ubr1∆): 2.66 ± 0.067

Sequence: SEHVFDYFFYFLVLYDV [NUT1]
- protein stability index (doa10∆): 2.12 ± 0.039
- protein stability index (pdr5∆): 2.06 ± 0.033
- protein stability index (san1∆): 2.26 ± 0.045
- protein stability index (ubr1∆): 2.36 ± 0.034

Sequence: ADITDGNNTELTKTTVN [YCG1]
- protein stability index (doa10∆): 3.19 ± 0.078
- protein stability index (pdr5∆): 3.22 ± 0.068
- protein stability index (san1∆): 3.33 ± 0.052
- protein stability index (ubr1∆): 3.09 ± 0.053

Sequence: VGGKSTVQNEILGDLGK [FAS2]
- protein stability index (doa10∆): 3.02 ± 0.075
- protein stability index (pdr5∆): 2.92 ± 0.1
- protein stability index (san1∆): 2.18 ± 0.1
- protein stability index (ubr1∆): 3.25 ± 0.11

Sequence: FMDETAVALAASDLVLI [SNU114]
- protein stability index (doa10∆): 2.55 ± 0.062
- protein stability index (pdr5∆): 2.74 ± 0.076
- protein stability index (san1∆): 2.69 ± 0.11
- protein stability index (ubr1∆): 2.21 ± 0.051

Sequence: VILAKNENETRDKVCKQ [PGD1]
- protein stability index (doa10∆): 3.45 ± 0.18
- protein stability index (pdr5∆): 2.96 ± 0.12

Sequence: VESQFSAGRLYACISSR [RPS8A]
- protein stability index (doa10∆): 2.08 ± 0.11
- protein stability index (pdr5∆): 2.65 ± 0.097
- protein stability index (san1∆): 1.99 ± 0.14
- protein stability index (ubr1∆): 2.55 ± 0.14

Sequence: QNGQQPPTTSNLIIFLY [YML103C/NUP188]
- protein stability index (doa10∆): 2.83 ± 0.05
- protein stability index (pdr5∆): 2.78 ± 0.04
- protein stability index (san1∆): 2.94 ± 0.034
- protein stability index (ubr1∆): 3.06 ± 0.035

Sequence: DVQVDAEEKREAVIDEK [ITC1]
- protein stability index (pdr5∆): 2.32 ± 0.18
- protein stability index (ubr1∆): 2.6 ± 0.13

Sequence: NMGMNNMNNGGKELDSL [PGD1]
- protein stability index (doa10∆): 3.54 ± 0.28
- protein stability index (pdr5∆): 3.64 ± 0.24
- protein stability index (san1∆): 3.24 ± 0.11
- protein stability index (ubr1∆): 3.24 ± 0.082

Sequence: AQKNTQSYGGRPYGVGL [PRE5]
- protein stability index (doa10∆): 3.38 ± 0.084
- protein stability index (pdr5∆): 3.43 ± 0.075
- protein stability index (san1∆): 3.23 ± 0.076
- protein stability index (ubr1∆): 3.26 ± 0.058

Sequence: RENVFFQSQQRRKDTSM [RPB9]
- protein stability index (doa10∆): 3.07 ± 0.083
- protein stability index (pdr5∆): 3.4 ± 0.11
- protein stability index (san1∆): 3.34 ± 0.065
- protein stability index (ubr1∆): 2.75 ± 0.15
